US20220073643A1
Substitutions are numbered along the chain they refer to.

B1: 200A4H8 (antibody, V domains shown)
VH: QVQLKQSGPGLVQPSQSLSITCTVSGFSLTRYGVHWVRQSPGKGLEWLGVIWSGGNTDYNAAFISRLNIRKDNSKSQVFFKMNSLKPNDTAIYYCARAAYFGNSFDYWGQGTTLTVSS
VL: DIVMTQSPSSLPVTAGEKVTMSCKSSQSLLNSGNQKNYLTWYQQKPGQPPKLLIYWASTRDSGVPDRFTGSGSGTDFTLTISSVQAEDLAVYYCQNNYIYPLTFGAGTKLELK
B2: 409D1A7 (antibody, V domains shown)
VH: DVQLVESGGGLVQPGGSRKLSCAASGFTFSGFGMHWIRQTPEKGLEWVAYISSGSRPIYYADTVKGRFTISRDNPKNTLFLHMTSLRSEDTAMYFCARFYYGNSFDHWGQGTLVTVSA
VL: B1 VL with S10F, P12T, S22N, K36R, D61E, V91L, N97A, I99S, Y100F, K113N
B3: 409G10G6 (antibody, V domains shown)
VH: B2 VH with G54D, H82Q, A97G
VL: DIVMTQSPSFLTVTAGEKVTLSCRSSQSLLNSGNQRNYLTWYQQKPGQPPKLLIYWASTRESGVPDRFTGSGSGTDFTLTISSVQAEDRALYYCQNAYSFPLTFGTGTKLELR
B4: 410A9A9 (antibody, V domains shown)
VH: B2 VH with G31S, I37V, T40A, R56S, H82Q, R98T, D106A, H107Y
VL: B1 VL with P12T, S28T, P46S, D61E, N97A, I99S, L102V, A106S, L110V
B5: 410H6H3 (antibody, V domains shown)
VH: DVLLVESGGGLVQPGGSRKLSCAASGFTFSSSGMHWVRQAPEKGLEWVAYISSGSNTIYYADTLKGRFTISRDNPKNTLFLQMTSLRSEDTAMYYCARIYYGNSFVYWGQGTLVTVSA
VL: B1 VL with P12T, T20I, L52M, D61E, T69R, I99Y, A106T, E111A
B6: 411A6E3 (antibody, V domains shown)
VH: B2 VH with G31D, H82Q, A97V, Y101F
VL: B3 VL with L21M, S22T, S28N, Q35L, R36K, Y55S, A86P, R89L, T106A, R113K
B7: 411B4G4 (antibody, V domains shown)
VH: B2 VH with M34L, H82Q
VL: B3 VL with L21M, R89L, T106A, R113K
B8: 411G3E10 (antibody, V domains shown)
VH: B2 VH with H82Q
VL: B3 VL with L21M, S22N, R36K, R89L, T106A, R113K
B9: 412B6E4 (antibody, V domains shown)
VH: DVQLVESGGGLVQPGGSRKLSCAASGFTFSSFGVHWVRQAPEKGLEWVAYISSGSSTIYYAHSVKGRFTISRDNPKNTLFLQMTSLGSEDTATYYCARFYYGNSFAYWGQGTLVTVSA
VL: B1 VL with P12T, L52M, D61E, N97A, I99T, K109R
B10: 201F4H6 (antibody, V domains shown)
VH: QVQLKESGPGLVAPSQSLSITCTVSGFSLTSYGVSWVRQPPGKGLECLGVIWAGGNTNYNSALMSRLSISKDKSKSQVFLKMNSLQTDDTAMYYCARVYYGNAMDYWGQGTSVTVSS
VL: DIVMTQSPSSLTVTAGEKVTMSCKSSQSLLNSGNQKSYLTWYQQRPGQPPKLLIYWASTRESGVPDRFTGSGSGTDFTLTISSVQAEDLAVYFCQNVYFFPFTFGSGTKLETK
B11: 413B1C9 (antibody, V domains shown)
VH: B2 VH with G31S, I37V, T40A, R56S, H82Q
VL: B1 VL with P12T, A15T, T20S, L30F, S32R, N37S, D61E
B12: 413C12F8 (antibody, V domains shown)
VH: B2 VH with M34V, S52G, H82Q
VL: B3 VL with L21M, S22N, R36K, K45R, R89L, T106A, R113K
B13: 414A5F7 (antibody, V domains shown)
VH: B5 VH with L3Q, S32F, N56S, T57P, L64V, Y95F, V106A
VL: B1 VL with P12T, T20A, S28T, I54L, D61E, N97A, I99Y, A106S
B14: 414H6G2 (antibody, V domains shown)
VH: B2 VH with P41A, K65Q, H82Q
VL: B3 VL with L21M, R24K, R36K, R89L, T106A, R113K
B15: 416F12F3 (antibody, V domains shown)
VH: B9 VH with V34M, T93M
VL: B1 VL with P12T, M21L, L52M, D61E, N97A, I99T, K109R
B16: 417A6F11 (antibody, V domains shown)
VH: EVQLQQSGPELVKPGASMKISCKASGYSFTGYTMNWVKQSHGKNLEWIGLINPYNGGTSYNQKFKGKATLTVDKSSSTAYMELLSLTSEDSAVYYCARGDYWGQGTTLTVSS
VL: DIVMTQSPSSLTVTAGEKVTMSCKSSQSLLNSGNQKNYLTWYQQKPGQPPKLLIYWASTRESGVPDRFTGSGSGTDFTLTISSVQAEDLAVYYCQNDYSYPTFGAGTKLELK
B17: 418B8B10 (antibody, V domains shown)
VH: B2 VH with G31S, I37V, T40A, R56S, A61T, H82Q
VL: B1 VL with P12T, T20S, L30F, S32R, N37S, K45R, D61E
B18: 419A10D4 (antibody, V domains shown)
VH: B2 VH with H82Q
VL: B3 VL with L21M, R24K, I81V, R89L, T106A, R113K
B19: 203A6C9 (antibody, V domains shown)
VH: B1 VH
VL: B1 VL
B20: 419A5F3 (antibody, V domains shown)
VH: B2 VH with G54D, H82Q, A97G
VL: B3 VL
B21: 420D5H5 (antibody, V domains shown)
VH: B2 VH with F29L, A61V, K65E, H82Q, A118S
VL: B3 VL with L21M, R24K, R36K, S82R, S83G, R89L, T106A, R113K
B22: 420F12G8 (antibody, V domains shown)
VH: B2 VH with T28A, H82Q, A97V
VL: B3 VL with L21M, S22T, S28N, R36K, Y55S, A86P, R89L, L102F, T106A, R113K
B23: 420G10G3 (antibody, V domains shown)
VH: B2 VH with P41A, K65Q, H82Q
VL: B3 VL with L21M, R24K, R36K, R89L, T106A, R113K
B24: 420H3H9 (antibody, V domains shown)
VH: B9 VH with V34M, T93M
VL: B1 VL with P12T, M21L, L52M, D61E, V91D, N97A, I99T, K109R
B25: 420H7E6 (antibody, V domains shown)
VH: DVQLVESGGGLVQPGGSRKLSCVTSGFTFSSFGMHWIRQAPEKGLEWVAFISGGGSPIFYADSVKGRFTVSRDNPKNTLFLQMTGLRSEDTAMYFCARFYFGNSFAYWGQGTLVTVSA
VL: DIVMAQSPSSLTVTAGEKVTMNCRSSQSLFNSGNQKNYLTWYQQKPGQPPKLLIYWASTRESGVPVRFTGSGSGTDFTLTISSVQAEDLAVYYCQTGFSYPLTFGPGTKLELK
B26: 421H4G3 (antibody, V domains shown)
VH: B2 VH with T28S, M34L, H82Q, Y101F, A118T
VL: B3 VL with L21M, S82N, R89L, T106A, R113K
B27: 422E8F9 (antibody, V domains shown)
VH: B2 VH with K65Q, H82Q, A118S
VL: B3 VL with L21M, R24K, R36K, R89L, T106A, R113K
B28: 422F4B6 (antibody, V domains shown)
VH: B5 VH with L3Q, T28S, S32F, N56S, T57P, L64V, T69I, Y95F, V106A
VL: B1 VL with P12T, S28T, D61E, N97A, I99S, A106S
B29: 203A6D5 (antibody, V domains shown)
VH: B1 VH
VL: B1 VL
B30: 423C10E1 (antibody, V domains shown)
VH: B25 VH with I37V
VL: B25 VL with A5T, P49S, G97S, S99N

Molecular target: Claudin18.2-His protein (human)
Test: indirect ELISA on coated Claudin18.2-His

Binder	EC50
B1	10.5 ng/mL
B2	7.75 ng/mL
B3	9.52 ng/mL
B4	20.8 ng/mL
B5	2.93 ng/mL
B6	6.74 ng/mL
B7	9.45 ng/mL
B8	5.43 ng/mL
B9	6.31 ng/mL
B10	119 ng/mL
B11	3.46 ng/mL
B12	6.82 ng/mL
B13	8.05 ng/mL
B14	11.6 ng/mL
B15	11.5 ng/mL
B16	42.8 ng/mL
B17	8.87 ng/mL
B18	6.53 ng/mL
B19	65.4 ng/mL
B20	5.51 ng/mL
B21	23.9 ng/mL
B22	17.6 ng/mL
B23	11.3 ng/mL
B24	7.22 ng/mL
B25	54.5 ng/mL
B26	7.53 ng/mL
B27	8.73 ng/mL
B28	149 ng/mL
B29	27.1 ng/mL
B30	29.7 ng/mL
